Measured values taken from patent US20240150494A1 (ROCKEFELLER UNIVERSITY, published 2024).

How the values were obtained:
[1] = biological target: T1, IgG1, G0 afucosylated glycoform (antibody not named); test: sandwich ELISA, IgG titrated
T1 construct: also called GO

[2] = biological target: T2, anti-NP (4-hydroxy-3-nitrophenylacetyl) antibody clone 3B62 IgG1, afucosylated; test: SPR, 1:1 Langmuir global kinetic fit, 256 to 16 nM in 2-fold steps
T2 construct: In the FcγRIIIA ELISA it stood as an immune complex with NP-BSA (10:1); also called 3B62 IgG1 G2; monomeric 3B62

B1: B7 (VHH)
VHH: QVQLQESGGGLVQAGGSLRLSCAASGGISRYKTMGWYRQAPGKEREFVAGITWGGSTYYADSVKGRFTISRDNAKNTVYLQMNSLKPEDTAVYYCSVDGGTYADPYHYYWGQGTQVTVSS
notes: also called clone B7; nanobody B7; not shown: His tag and AviTag of the pET26-b(+) construct
With B1 the “EC50 (read off the curve)” value [1] was ~0.4 µg/mL and the Kd [2] was 3.76 µM.
